Test results from PMC3053351.

What was measured:
Experiment in all cases: flow cytometry on cells
[1] = molecular target: Mamu-KIR3DL05*003 (rhesus macaque)
[2] = molecular target: Mamu-KIR3DL05*005 (rhesus macaque)
[3] = molecular target: Mamu-KIR3DL05*010 (rhesus macaque)
[4] = molecular target: Mamu-KIR3DL05*008 (rhesus macaque)
[5] = molecular target: Mamu-KIR3DL05*001 (rhesus macaque)
[6] = molecular target: Mamu-KIR3DL05*004 (rhesus macaque)

Substance	MFI of tetramer staining divided by MFI of HA staining [1]	MFI of tetramer staining divided by MFI of HA staining [2]	MFI of tetramer staining divided by MFI of HA staining [3]	MFI of tetramer staining divided by MFI of HA staining [4]	MFI of tetramer staining divided by MFI of HA staining [5]	MFI of tetramer staining divided by MFI of HA staining [6]
Mamu-A1*00201 tetramer folded with SIV Env_(788-795) RY8 (from UniProt P61769 21-119) (peptide-MHC)	0.06	0.03	0.07	0.07		
Mamu-A1*00201 tetramer folded with SIV Gag_(71-79) GY9 (from UniProt P61769 21-119) (peptide-MHC)	1.57	0.55	1.55	1.49	0.02	1.99
Mamu-A1*00201 tetramer folded with SIV Nef_(159-167) YY9 (from UniProt P61769 21-119) (peptide-MHC)	0.03	0.01	0.03	0.03		0.13
